What is called Kd is the concentration at which binding is half-saturated. A higher Kd goes with a looser complex. Broadly, the EC50 (read off the curve) is the concentration that produces a half-maximal response. A low value points to higher potency in that assay.

Ends that are not written are not given here.

The results in this text go back to US20190263898A1 (UNIVERSITE GRENOBLE ALPES, published 2019).

In test [1] the target is T1, truncated Tau protein in fiber form (polymerized R3 peptide) (also: polymerized (fiber form)).
T1 construct: also called R3 peptide fibers; Mimetics (the R3 region of polymerized Tau)
T1 peptide: VQIVYKPVDLSKVTSKCG
The experiment in a line: ELISA on polymerized R3 peptide. (An ELISA detects its analyte on a solid surface through an enzyme-linked reagent.)

The target in test [2] is T2, Tau protein in fiber form (preparation of htau40 enriched with Tau fibers, 72 h fibrillation with heparin) (Homo sapiens (Human), UniProt P10636 2-758).
T2 construct: Fibrillar aggregate of full-length htau40; also called Tau-F (Tau fibers); the fibers
T2 sequence (P10636 other isoform, or with tags, fused parts or gaps limits assumed): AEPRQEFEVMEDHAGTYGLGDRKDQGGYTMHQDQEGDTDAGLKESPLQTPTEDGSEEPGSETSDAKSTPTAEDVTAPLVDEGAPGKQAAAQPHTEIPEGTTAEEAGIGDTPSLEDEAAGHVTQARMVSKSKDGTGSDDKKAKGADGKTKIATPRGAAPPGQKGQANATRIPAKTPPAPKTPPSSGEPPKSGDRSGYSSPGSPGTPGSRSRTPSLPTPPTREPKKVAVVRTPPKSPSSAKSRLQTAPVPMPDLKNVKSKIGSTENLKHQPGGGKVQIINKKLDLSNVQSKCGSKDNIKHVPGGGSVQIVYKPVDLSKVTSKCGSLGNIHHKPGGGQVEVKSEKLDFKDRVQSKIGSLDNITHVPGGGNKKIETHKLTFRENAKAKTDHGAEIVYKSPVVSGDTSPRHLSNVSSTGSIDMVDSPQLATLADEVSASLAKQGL
The experiment in a line: ELISA on preparation enriched with Tau fibers.

In test [3] the target is T3, Tau protein in oligomer form (preparation of htau40 enriched with Tau oligomers, 48 h fibrillation with … (Homo sapiens (Human), UniProt P10636 2-758)).
T3 construct: Oligomeric aggregate of full-length htau40; also called the oligomers; low-molecular-weight tau polymers
T3 sequence (P10636 other isoform, or with tags, fused parts or gaps limits assumed): as above
The test is described as follows: ELISA on preparation enriched with Tau oligomers.

Test [4] has as its target T4, native Tau protein (monomeric form) (Homo sapiens (Human), UniProt P10636 2-758).
T4 construct: also called Tau-N (native taus); Tau in monomer form
The test is described as follows: ELISA, 2C5 titrated on native Tau (Tau-N).

Test [5] addresses T1, truncated Tau protein in fiber form …. The experiment in a line: ELISA, 2C5 titrated on polymerized R3 peptide (Mimes).
Test [6] concerns the target T2, Tau protein in fiber form (preparation …). The test is described as follows: ELISA, 2C5 titrated on a preparation enriched with Tau fibers (Tau-F).
In test [7] the target is T3, Tau protein in oligomer form …. The test is described as follows: ELISA, 2C5 titrated on a preparation enriched with Tau oligomers (Tau-O).
Test [8] addresses T1, truncated Tau protein in fiber form …. The experiment in a line: ELISA, unlabeled 2C5 titrated on polymers of the R3 sequence of Tau (R3 Fibers), PBS with 1% BSA, pH 7.5; PBS wells as control. As to the method:
(§1) The ELISAs are carried out before (FIG. 5) and after (FIG. 6) radiolabeling. It is noted that, after radiolabeling, the ligand retains good affinity for its target (FIG. 6).

The target is the same in test [9]. The test is described as follows: ELISA-format assay with 2C5 radiolabeled with iodine 125 on polymers of the R3 sequence of Tau, CPM readout (sheet title: RIA 125I 2C5), PBS with 1% BSA, pH 7.5; PBS wells as control. As to the method: as §1

T4 sequence (P10636 other isoform, or with tags, fused parts or gaps limits assumed): as above

B1: 2C5 nanobody (VHH) with C-terminal myc and six histidine residues tag (VHH)
VHH: QVQLVQSGGGLVQAGGSLRLSCAASGRTFSSDTLAWFRQAPGKEREFVASISPSGGVTYYEDSVKGRFTISRDNSKNTVLLQMNSLTPEDTAVYYCNRDPKYGNTRYWGQGTQVTVSS
notes: also called 2C5 Nb; 2C5 (VHH)
Turning to B1, the equilibrium dissociation constant (Kd) in test [1] stood at 50 nM; in test [2], 6 nM; in test [3], 5 nM; in test [4], 1790 nM; in test [5], 51.8 nM; in test [6] it was 5.02 nM. Also, the Kd in test [7] was determined as 6.28 nM; in test [8], 14.4 nM. Besides, the “EC50 (read off the curve)” value in test [5] is roughly 50 nM.

B2: 2C5 nanobody radiolabeled with iodine 125 (VHH)
VHH: B1 VHH
modifications: radiolabeled with iodine 125 (site not stated)
B2 came in with a Kd in test [9] of 162 nM. This lies in the sub-micromolar range.
